One block for each molecule: values may come before it.
How the values were obtained:
[1] = molecular target: T1, 人白介素-33 (human interleukin-33) (human, UniProt O95760 112-270); experiment: SPR, Biacore T200, 25℃, antibody captured on Protein A chip, IL-33 as analyte, 1:1 model
T1 sequence: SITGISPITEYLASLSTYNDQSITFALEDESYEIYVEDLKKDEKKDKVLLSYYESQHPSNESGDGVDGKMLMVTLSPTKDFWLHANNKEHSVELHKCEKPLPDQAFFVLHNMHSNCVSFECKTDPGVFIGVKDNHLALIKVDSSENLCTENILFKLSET

[2] = molecular target: 天然人白介素-33 (natural human interleukin-33 from HFL-1 cell lysate) (human) (UniProt O95760); experiment: cell-based or functional assay
[3] = molecular target: T1, 人白介素-33 (human interleukin-33); experiment: cell-based or functional assay
[4] = molecular target: T2, 天然人白介素-33 (natural human interleukin-33 from HFL-1 cell lysate) (human, UniProt O95760 1-270, limits assumed); experiment: cell-based or functional assay
T2 sequence (looked up): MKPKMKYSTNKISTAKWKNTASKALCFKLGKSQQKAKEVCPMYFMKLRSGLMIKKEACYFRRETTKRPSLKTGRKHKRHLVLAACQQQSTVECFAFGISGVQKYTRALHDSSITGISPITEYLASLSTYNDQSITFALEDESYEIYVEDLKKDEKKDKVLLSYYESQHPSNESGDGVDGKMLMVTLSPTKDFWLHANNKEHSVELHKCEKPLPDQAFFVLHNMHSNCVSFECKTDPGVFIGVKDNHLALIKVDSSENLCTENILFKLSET

- Kd [1]: 0.869 nM
- koff [1]: 0.000369 s⁻¹
- kon [1]: 424000 M⁻¹ s⁻¹
- 抑制天然人白介素-33诱导HEK Blue IL-33细胞中NF-κB/AP-1信号转导 (SEAP reporter), IC50 [2]: 2.5 ng/mL
- 中和人白介素-33诱导人全血释放IFN-γ, IC50 [3]: 31.9 ng/mL
- 中和人白介素-33诱导的KU812细胞释放IL-5, IC50 [3]: 44 ng/mL
- 抑制重组人白介素-33诱导HEK Blue IL-33细胞中NF-κB/AP-1信号转导 (SEAP reporter), IC50 [3]: 6.05 ng/mL
Molecule: Etokimab/ANB020 (antibody)

- Kd [1]: 1.23 nM
- koff [1]: 0.000481 s⁻¹
- kon [1]: 392000 M⁻¹ s⁻¹
- 抑制天然人白介素-33诱导HEK Blue IL-33细胞中NF-κB/AP-1信号转导 (SEAP reporter), IC50 [4]: 3.91 ng/mL
- 中和人白介素-33诱导人全血释放IFN-γ, IC50 [3]: 16 ng/mL
- 中和人白介素-33诱导的KU812细胞释放IL-5, IC50 [3]: 5.87 ng/mL
- 抑制重组人白介素-33诱导HEK Blue IL-33细胞中NF-κB/AP-1信号转导 (SEAP reporter), IC50 [3]: 6.67 ng/mL
B1: QX007N(HZD78-70) (antibody, V domains shown)
VH: EVQLVESGGGLVQPGGSLRLSCAASGFSLSSYHMIWVRQAPGKGLEWVGVIYPNSNIYYATWAKGRFTISRDNSKNTLYLQMNSLRAEDTAVYYCARTIYVHVYSALSIWGQGTLVTVSS
VL: AFQMTQSPSSVSASVGDRVTITCQASESVLNEVSWYQQKPGKAPKLLIYFASKLASGVPSRFSGSGSGTDFTLTISSLQPEDFATYYCQQDWSMDNIDNAFGGGTKVEIKR

Reference: patent CN113912728A (QYUNS THERAPEUTICS CO LTD, dated 2022)
